{"source": "IntAct's records for PubMed 22228096", "data": [{"target": "dnm1l_human DNM1L (UniProt O00429)", "sequence (O00429 whole entry)": "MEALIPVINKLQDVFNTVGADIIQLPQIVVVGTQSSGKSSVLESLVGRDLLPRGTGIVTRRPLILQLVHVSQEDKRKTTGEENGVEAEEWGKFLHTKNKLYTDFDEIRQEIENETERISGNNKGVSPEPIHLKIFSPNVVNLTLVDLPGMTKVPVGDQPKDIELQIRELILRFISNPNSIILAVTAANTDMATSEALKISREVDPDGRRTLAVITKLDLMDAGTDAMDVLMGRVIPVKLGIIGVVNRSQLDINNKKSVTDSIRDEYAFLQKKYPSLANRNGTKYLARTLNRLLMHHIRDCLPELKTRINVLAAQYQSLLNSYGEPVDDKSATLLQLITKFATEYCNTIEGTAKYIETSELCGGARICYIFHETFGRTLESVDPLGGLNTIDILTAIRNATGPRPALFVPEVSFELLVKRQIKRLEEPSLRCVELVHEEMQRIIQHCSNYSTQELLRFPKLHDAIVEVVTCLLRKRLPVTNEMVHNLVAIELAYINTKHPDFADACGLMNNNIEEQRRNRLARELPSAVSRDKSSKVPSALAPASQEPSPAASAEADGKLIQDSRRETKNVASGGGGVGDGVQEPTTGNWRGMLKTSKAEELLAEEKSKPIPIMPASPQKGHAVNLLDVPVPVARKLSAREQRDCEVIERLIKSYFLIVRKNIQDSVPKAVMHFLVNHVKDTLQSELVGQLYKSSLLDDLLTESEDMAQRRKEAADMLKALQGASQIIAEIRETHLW", "values": [{"substance": "Leucine-rich repeat serine/threonine-protein kinase 2 (Homo sapiens), Q5S007 D1994A", "effect of a mutation on the interaction": "decreasing interaction"}, {"substance": "Leucine-rich repeat serine/threonine-protein kinase 2 (Homo sapiens), Q5S007 G2019S", "effect of a mutation on the interaction": "increasing interaction"}, {"substance": "Leucine-rich repeat serine/threonine-protein kinase 2 (Homo sapiens), Q5S007 K1347A", "effect of a mutation on the interaction": "decreasing interaction"}, {"substance": "Leucine-rich repeat serine/threonine-protein kinase 2 (Homo sapiens), Q5S007 R1441C", "effect of a mutation on the interaction": "increasing interaction"}]}]}
